Source: PMC6707742

Target: coagulation factor IXa (FIXa) (human, UniProt P00740;P00740 47-191;227-461)
Experiment: SPR

coagulation factor IXa (FIXa), sequence (P00740 47-191, chain 1 of 2): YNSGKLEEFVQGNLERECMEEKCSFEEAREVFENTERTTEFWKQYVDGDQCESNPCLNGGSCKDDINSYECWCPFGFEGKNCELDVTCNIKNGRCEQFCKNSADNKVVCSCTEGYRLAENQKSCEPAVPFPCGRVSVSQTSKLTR
coagulation factor IXa (FIXa), sequence (P00740 227-461, chain 2 of 2): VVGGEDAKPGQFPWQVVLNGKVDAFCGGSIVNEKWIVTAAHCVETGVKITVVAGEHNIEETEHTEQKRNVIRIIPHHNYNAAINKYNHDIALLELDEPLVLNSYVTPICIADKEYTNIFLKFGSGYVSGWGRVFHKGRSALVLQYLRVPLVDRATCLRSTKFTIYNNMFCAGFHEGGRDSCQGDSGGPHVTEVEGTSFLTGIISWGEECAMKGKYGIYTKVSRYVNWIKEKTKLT

B1: RB006 (XNA)
RNA: GUGGACUAUACCGCGUAAUGCUGCCUCCAC
modifications: 5' 40 kDa branched mPEG; uppercase 2'-F, lowercase 2'-OMe in GUGGAcuAuAccGcGuAAuGcU(G)CcuCCAC; (G) unmodified; 3' inverted dT
**Q.** Does B1 bind?
**A.** binds
